# Measurements reported in the supplement of paper PMC9170038.
# Tested on: MS2 coat protein
# Assay: apparent KD of MS2 coat protein; designed switch direction (-1 OFF switch, 1 ON switch): -1; higher = weaker reporter binding
# In short: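 Designed RNA switches with common flanks were made on Illumina chips by stalled E. coli RNA polymerase. Titration with SNAP-549-labelled MS2 coat protein doubled from 0.7 or 1.5 nM up to 3 µM. Apparent KD is each design's median over clusters after curve-fitting normalised fluorescence.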
# [1] = input ligand: microRNA oligo, concentration not stated
# [2] = Eterna round: R95, input ligand: microRNA oligo, concentration not stated
# [3] = Eterna round: R95, input ligand: FMN 200 uM
# [4] = Eterna round: R95, input ligand: none
Sequence,apparent KD of MS2 coat protein (input ligand: FMN 200 uM),apparent KD of MS2 coat protein [1],apparent KD of MS2 coat protein (input ligand: none),apparent KD of MS2 coat protein [2],apparent KD of MS2 coat protein [3],apparent KD of MS2 coat protein [4]
"AUGUGAUUGGCUCUGAGACAUGAGGAUCACCCAUGUGGAGCGCAGGAUAUCCGAACCGUGAAGGCGGAGAAGGGCGUCGUGGUA [Zasorequer] (Eterna round: R96, puzzle: Exclusion NG 3)",0.0396 µM,0.0205 µM,0.026 µM,–,–,–
"GGCUGCAAUGUAGGAUAUCUGCACGUGUAGUGCAGAGAAGGACAUGAGGAUCACCCAUGUAUAGUAGCUUCGGCUACAGCAGCC [ENG1-D3] (Eterna round: R96, puzzle: Exclusion NG 1)",0.0246 µM,0.0127 µM,0.0182 µM,–,–,–
CUUUUGUGAGGAUAUCAGUAGUAAAUAAAUAAAAUUUCUACUGAGAAGGCACAUGAGGAUCACCCAUGUUCCUC [salish99_ex3_r3_085] (puzzle: Exclusion 4),–,–,–,0.0363 µM,–,–
"GAGACGAAAGGAUAUACAUGAGGAUCACCCAUGUAUGAAACAUGAGAAGACACCGCUGGUAGAAGGUUUGGAAA [Eternabot (Original) Solution 46] (Eterna round: R97, puzzle: Exclusion 3)",0.0268 µM,–,0.0232 µM,–,–,–
"UAUUAGCAAGCGAGAUCUCACAUGAGGAUCACCCAUGUGCUCGUCUUAUAAGGUACUGUGACGAGAGUCACGGUACC [Mat - Sensor, turn-off var - Eli Mod - D37] (Eterna round: R97, puzzle: Sensor, turn-off variant 1)",0.013 µM,–,0.0141 µM,–,–,–
"GCCCAGAGAGGAUAUACAUGAGGAUCACCCAUGUAGAGCUUGUCUGCAGUGAAAGGAUGUAGAAGGCUCGGGCA [Racearza] (Eterna round: R97, puzzle: Exclusion 3)",0.0426 µM,–,0.0268 µM,–,–,–
"CUCCUCAUGGCGCCUAAACACAUGAGGAUCACCCAUGUACAGGCCUUUUGCCGUCUUAUAAUAAAACCGAGGAUGCG [Lainxezabe] (puzzle: Sensor v3, turn-off variant 1)",–,–,–,0.223 µM,0.0296 µM,0.0268 µM
"GAUGGACAUGAGGAUCACCCAUGUAAGGAUAUUGAUUAUGGUUAUAAAUAAUUAUGGUCAAGAAGGUACUCGUC [-17.8, -14.8 kcal, A 34%] (Eterna round: R97, puzzle: Exclusion 1)",0.114 µM,–,0.147 µM,–,–,–
"AGUCAGGCGGUAGGAUAUCCAAACCGAGUGACCCUCUCAUAACAUGAGGAUCACCCAUGUCGGUGGGAGAAGGGCCGUACGGCG [Atra] (Eterna round: R96, puzzle: Exclusion NG 2)",0.206 µM,0.09 µM,0.117 µM,–,–,–
"GAGAGCUGAGGAUAUACAUGAGGAUCACCCAUGUACCACCUUGCCGGCACAGAUCCUUGUAGAAGGCGGCUCUA [Eternabot (L2) Solution 57] (Eterna round: R97, puzzle: Exclusion 3)",0.0513 µM,–,0.161 µM,–,–,–
"GGCGAGCAAGGAUAUGCAGGGUAUCCGACUCGCAGCGGGCGACAUGAGGAUCACCCAUGUAGAAGGUGCACGCG [EX2 A.6] (Eterna round: R97, puzzle: Exclusion 2)",0.0239 µM,–,0.031 µM,–,–,–
CCUUUGUCAGGAUAUCGAAAAGGGAGGCCAAAGGCCUCCGGUGAGAAGGGACAUGAGGAUCACCCAUGUGAAAA [Soonbidibe] (puzzle: Exclusion 4),–,–,–,0.0575 µM,–,–
"CGGGCCCGGGCAGGAUAUGCGGCGGCCCGGGCCGGUGGGCCCGGGCCGACAUGAGGAUCACCCAUGUAGAAGGGCCCGGGCCCG [low energy, MS2 in another position, A 14%] (Eterna round: R96, puzzle: Exclusion NG 2)",0.0157 µM,0.0107 µM,0.0161 µM,–,–,–
"GCAUGUCAGUAGGAUAUGCAGCACUUGAUACCUGCAGAAGGACUGACAUGAGGAUCACCCAUGUCUCGGGUGCU [EX6 A.10] (Eterna round: R97, puzzle: Exclusion 6)",0.0168 µM,–,0.149 µM,–,–,–
"UUCGAGGCAGGAUAUGCGUAGCCACGGAGGAUCACCAAGUAACAUGAGGAUCACCCAUGUAGAAGGGCUAGAGC [Eternabot (L1) Solution 26] (Eterna round: R97, puzzle: Exclusion 2)",0.0601 µM,–,0.0764 µM,–,–,–
"GGUACUAACACGAUAGUGUUAGUACAAUAAGCUUGUGUUACAUGAGGAUCACCCAUGUCCUCAUAAGCUCGUCUUAU [Mat - Sensor v3 - Turn-off var 2 - D56] (puzzle: Sensor v3, turn-off variant 2)",–,–,–,0.102 µM,0.117 µM,0.108 µM
UUUUAACAUGAGGAUCACCCAUGUGAGGAUAUCGAAAUUUAUAUUAAUAUUUUUAAAUCGAGAAGGCACAUUUU [JMF 68] (puzzle: Exclusion 1),–,–,–,0.0989 µM,–,–
"UUGCAGUCGUCAGGAUAUAGUAUUACGGCCUUUUAUUUCUUCAUACAUGAGGAUCACCCAUGUCGCUAGAAGGGAUUAUCGAUU [salish99_ExNG2_r04_105] (Eterna round: R96, puzzle: Exclusion NG 2)",0.0178 µM,0.0142 µM,0.0222 µM,–,–,–
AAACUGCAUGUGAGGAUAUGCACCGACUAAACCGGGCAGAAGGCACAUGAGGAUCACCCAUGUCAUCCUAUUGC [Beederte] (puzzle: Brourd's mod of Exclusion 4),–,–,–,0.00799 µM,–,–
"UCCUGACAUGAGGAUCACCCAUGUUAGGAUAUGACAUUUGGCGCGACAGUGUGGAGUGUUAGAAGGGAUGUGGG [-29.9, -27.2 kcal, A 24%] (Eterna round: R97, puzzle: Exclusion 1)",0.0183 µM,–,0.0165 µM,–,–,–
AGACAGUCAGGAUAUACAUGAGGAUCACCCAUGUUAAGAAAAGAAAGGGCAGGAAGAGGUAGAAGGGACAAGAA [JR_Exclu3_Sub032] (puzzle: Exclusion 3),–,–,–,0.0285 µM,0.0288 µM,0.0328 µM
"GUGAAACAUGAGGAUCACCCAUGUCAGGAUAUGCAUCCAGUUCACCUAUAAAGACGGUGUAGAAGGGACAAUAA [Eternabot (Original) Solution 7] (Eterna round: R97, puzzle: Exclusion 1)",0.0224 µM,–,0.0213 µM,–,–,–
"GAAUAGAGAGGAUAUGCAAUGAAGGUAGUACGAUAUGUCUGACAUGAGGAUCACCCAUGUAGAAGGCUCAGAUC [EX2 #9] (Eterna round: R97, puzzle: Exclusion 2)",0.0638 µM,–,0.0298 µM,–,–,–
